Positions count from the first letter of the chain named.
B1: antibody 2706 (antibody, V domains shown)
VH: QVQLVQSGAEVKKPGSSVKVSCKASGGTFSTYAISWVRQAPGQGLEWMGGIIPLFATANYAQNFQGRVTITADKSTSTAYMELSSLRSEDTAVYYCASVRLHLEELSLSHQGDYYYGLDVWGQGTTVTVSS
VL: DIQMTQSPSSLSASVADRVTITCQASQDISHYLNWYQQKPGKAPQLLIYDASKLETGAPSRFSGSGSGTDFTFTISSLQPEDIATYYCQQYDHLPLTFGGGSKVEIK
B2: antibody 2020 (antibody, V domains shown)
VH: QVQLVQSGAEVKKPGASVKVSCKASGYTFTDYFMHWVRQAPGQGLEWMGWVNPLSGGTNFAQKFQGRVTMTSDTSITTVYMELSRLRSDDTAVYYCARDPPLYSSTYGMDVWGQGTTVTVSS
VL: QSALTQPASVSGSPGQSITISCTGTSSDVGAYNYVSWYQQHPGKAPKLMIYDVSDRPSGVSNRFSGSKSGNTASLTISGLQAEDEADYYCSSYTISSSVVFGGGTKLTVL
B3: antibody 2050 (antibody, V domains shown)
VH: QVQLVQSGAEVKKPGASVKVPCKVSGYTFTDHFIHWVRQAPGQGLEWMGWISPNSGGRNYTQKFQGRVTLTRDTAITTVHMDLSSLTPDDTAVYYCARDVRWAQLQGGFDLWGQGTMVTVSS
VL: QSALTQPASVSGSPGQSITISCTGTSSDVGSYNLVSWYQQHPGKAPKLMIYEVSKRPSGVSNRFSGSKSGNTASLTISGLQADDEADYYCCSYAGDNNFLFGGGTSLTVL
B4: antibody 2075 (antibody, V domains shown)
VH: QVQLVQSGAEVKKPGSSVKVSCTASGGTFSIYAFSWVRQAPGQGLEWMGGIIPISGTAGYAQKFQGRVTITADESTSTAYMELSSLRSEDTAIYYCARKYRYCSGSRCYTYFDYWGQGTLVTVSS
VL: DIQMTQSPSSLSASVGDRVTITCRASQSISSFLNWYQQKPGKAPKLLIYAASSLQSGVPSRFSGSGSGTDFTLTISSLQPEDSATYYCQQSYSTITFGQGTRLEIK
B5: antibody 1867 (antibody, V domains shown)
VH: EVQLVESGGGLVKPGGSLRLSCAASGFSFSTYTMNWVRQAPGKGLEWVSYISSSSSYRYYADSVRGRFSVSRDNAKNSLYLQMNGLRVEDTAVYYCARDGYCPNGVCTYYGMDVWGQGTTVTVSS
VL: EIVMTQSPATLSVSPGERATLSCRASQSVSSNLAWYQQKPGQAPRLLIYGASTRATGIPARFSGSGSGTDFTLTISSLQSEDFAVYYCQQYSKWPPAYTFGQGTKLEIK
B6: antibody 1888 (antibody, V domains shown)
VH: B5 VH with S28T, T31S, T33S, R58K, R65K, M83L, N104K, S125A
VL: EIVMTQSPATLSVSPGERATLSCRASQSVRSRLAWFQQKPGQPPRLLIYDASIRATGIPDRFSGSGSGTEFTLIISGLQSEDFAVYYCQQYDNWPPAYTFGQGTKLEIK
B7: antibody 1856 (antibody, V domains shown)
VH: B5 VH with Q3R, T31L, R65K, S78T, Q82E, V88A, N104R, S125A
VL: EIVMTQSPATLSVSPGERATLSCRASQTIGIRLAWYQQKPGQAPRLLIYDATIRATGIPARFSGSGSGTDFTLTISGLQSEDFAVYYCQRYNNWPPVYTFGQGTKLEMK
B8: antibody 1864 (antibody, V domains shown)
VH: QVQLQESGPGLVKPSETLSLTCTVSGGSINYYYWSWIRQPPGKGLEWIGFIYSSGTTNYNPSLKSRVTMSVDSSKSQFSLKLSSVTAADSAVYYCARHSRSCTNGVCQTYYYYALDVWGHGTTVTVSS
VL: QSVLTQPPSVSGAPGQRVTISCTGSSSNIGAGYDVHWYQQLPGTAPKLLIYGNSNRPSGVPDRFSASKSGTSASLAIAGLQPEDEGDYYCQSYDGSLSESGVFGGGTRLTVL
B9: antibody 1851 (antibody, V domains shown)
VH: B8 VH with P40S
VL: B8 VL
B10: antibody 1870 (antibody, V domains shown)
VH: B8 VH with T23S, S73T, S76N
VL: B8 VL with P82A
B11: antibody 1959 (antibody, V domains shown)
VH: QVQLVQSGTEVKKPGSSVRVSCQASGDTFTSHAIIWIRQAPGQGLEYLGRIIPVLDITNAAQRFLGRLTLTADKSTTTAYMELSSLRSEDTAVYYCARAPFGLIVMYDHWGQGTLVTVTA
VL: EIVLTQSPGTLSLSPGERATLSCRASQSVSGNFLAWYQQKPGQAPRLLIHETSKRATGIPDRVSGGGSGTDFTLTISRLEPEDFAVYHCQQYGTTAVTFGQGTRLDMK
B12: antibody 1915 (antibody, V domains shown)
VH: QVQLVESGGGVVQPGRSLRLSCAASGFTFSSYAMHWVRQAPGKGLEWVAVISYDGSNKYYADSVKGRFTISRDNSKNTLYLQMDSLRAQDTAVYYCATPRDMFSSGWSSPFDYWGQGTLVTVSS
VL: DIQMTQSPSSLSASVGDRVTITCQASQDISIYLTWYQQKPGKAPKLLIYGASNLEVEVPSRFSGSGSGTEFTLTISSLQPEDFATYFCQHSDDLPVTFGGGTKVEVK
B13: antibody 1969 (antibody, V domains shown)
VH: QVQLVQSGAEVKKPGASVKVSCKASGYSFTDYYIHWVRQAPGQGLEWMGIIKPSAGATVYAQKFRGRVSMTSDTSTGTVYMELSGLKSEDTAVYYCARDYNRSFDFWGQGTLVTVSS
VL: QSVLTQPPSVSAAPGQTVTISCAGSTSNIGKNYVSWYQHLPGTAPKLLIYDNIKRPSGIPDRFSGSTSGTSATLGITELQTGDEADYYCGTWDSSLSAYVFGTGTKVTVL
B14: antibody 1963 (antibody, V domains shown)
VH: QVQLVQSGAEVKKPGASVKVSCKASGYTFTSNYIHWLRQAPGQGLEWMGIIKPSGTSTISAQKFRGRVAMTRDTSTSTVYMELSSLRFEDTAIYYCARDAKRALETWGQGTMVTVSS
VL: QSVLTQPPSVSAAPGQKVTISCSGSSSNIGNNYVSWYQQLPGTAPKLLIYDNNKRPSGIPDRFSGSRSGTSATLGITGLQTGDEADYYCGTWDSSLSAWVFGGGTKLTVL
B15: antibody 1826 (antibody, V domains shown)
VH: QVQLQESGPGLVKPSETLSLTCSVTGGSTNYYYWSWIRQPPGKGLEWIGYIYYSGTTNYNPSLKDRVTMSVDKSKTQLSLKLNSVTAADTAVYYCARHARHCTNGVCQTYYYYGLDVWGLGTTVAVSA
VL: QSVLTQPPSVSAAPGQRVTISCSGSSSNIGAGYDVHWYQHLPGTAPKLLIYNNNNRPSGVPDRFSASRSGTSASLAITGVQTEDEADYYCQSFDGRLSESGVFGGGTKLTVL
B16: antibody 1823 (antibody, V domains shown)
VH: B5 VH with A23V, S30G, T31L, S55T, R58K, R65K, F68V, M83L, V106I, S125A
VL: EIVMTQSPATLSVSPGERATLSCRASQSVSSNLAWYQQKPGQAPRLLIYGASTRATGIPARFSGSGSGTEFTLTITGLQSEDFAVYYCQQYDKWPPAYSFGQGTKVEIK

The binders below were run against T1, Receptor-binding domain (RBD) of the SARS-CoV-2 spike protein, WA01/2020 strain (SARS-CoV-2, WA01/2020 strain, UniProt P0DTC2 319-541) (assay: SPR (Biacore 8K), antigen immobilized, antibody injected).

| Binder | Kd [nM] |
| --- | --- |
| B1 | 0.029 |
| B2 | 0.0011 |
| B3 | 0.115 |
| B4 | < 0.0007 |

These binders were tested against T1, Receptor-binding domain (RBD) of the … (assay: ELISA screening, antibody concentration not given).

| Binder | binding result |
| --- | --- |
| B5 | no binding (tested: not printed) |
| B6 | no binding (tested: not printed) |
| B7 | no binding (tested: not printed) |
| B8 | no binding (tested: not printed) |
| B9 | no binding (tested: not printed) |
| B10 | no binding (tested: not printed) |
| B11 | no binding (tested: not printed) |
| B12 | no binding (tested: not printed) |
| B13 | no binding (tested: not printed) |
| B14 | no binding (tested: not printed) |
| B15 | no binding (tested: not printed) |

The binders below were run against SARS-CoV-2 spike protein on live virus, strain USA-WA1/2020 (SARS-CoV-2, WA01/2020 strain, UniProt P0DTC2 14-1273) (assay: cell-based or functional assay).

| Binder | Live Neut, WA1/2020 IC50 (pM) |
| --- | --- |
| B1 | 171 |
| B2 | 14 |
| B3 | 36 |
| B4 | 12 |

What follows are binders tested against SARS-CoV-2 spike protein, B1.1.7 (alpha variant), borne on lentiviral pseudovirus (SARS-CoV-2, B1.1.7) (assay: cell-based or functional assay).

| Binder | Pseudo Neut, B1.1.7 IC50 (pM) |
| --- | --- |
| B1 | 13 |
| B2 | 13 |
| B3 | 200 |
| B4 | ~7 |
| B16 | 850 |

The binders below were run against SARS-CoV-2 spike protein, B1.351 (beta variant), borne on lentiviral pseudovirus (SARS-CoV-2, B1.351) (assay: cell-based or functional assay).

| Binder | Pseudo Neut, B1.351 IC50 (pM) |
| --- | --- |
| B1 | > 18000 |
| B16 | 133 |

The binders below were run against T1, Receptor-binding domain (RBD) of the … (assay: dose-response ELISA on coated antigen).

| Binder | EC50 [nM] |
| --- | --- |
| B1 | 0.017 |
| B2 | 0.088 |
| B3 | 0.025 |
| B4 | 0.073 |

These binders were tested against T1, Receptor-binding domain (RBD) of the … (assay: ELISA, antibody blocks RBD binding to human ACE2).

| Binder | IC50 [nM] |
| --- | --- |
| B1 | 0.51 |
| B2 | 1.41 |
| B3 | 0.727 |
| B4 | 0.93 |
